Like-named read-outs stand apart in the source and are kept apart here.
T1: human CCR8 N-terminal domain-mouse Fc tag fusion protein (human (CCR8 part), mouse IgG2a Fc)
T1 construct: also called huCCR8-N-mIgG2a; human CCR8 N-terminal protein
T1 chain: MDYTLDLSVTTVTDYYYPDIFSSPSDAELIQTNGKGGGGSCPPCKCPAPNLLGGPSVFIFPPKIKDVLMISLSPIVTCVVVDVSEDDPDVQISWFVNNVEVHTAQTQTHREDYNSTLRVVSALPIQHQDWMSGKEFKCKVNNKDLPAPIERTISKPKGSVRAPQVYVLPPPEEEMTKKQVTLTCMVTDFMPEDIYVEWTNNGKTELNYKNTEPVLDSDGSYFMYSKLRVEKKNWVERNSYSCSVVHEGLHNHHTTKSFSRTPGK

B1: 433H (antibody, from another filing, V domains shown)
VH: EVQLVETGGGLVQPKGSLRLSCAASGFPFNTFAMNWVRQAPGKGLEWLARIRSKSNNYATYYADSVKDRFTISRDDSRRMLYLLMNNVKFEDTAIYYCVRGKENNYGYAMDYWGQGTSVTVSS
VL: DIVMTQAAPSVPVTPGESVSISCRSSQSLLHSNGNTYLYWFLQRPGQSPQLLIYRMSNLASGVPDRFSGSGSGTAFTLRISRVEAEDVGVYYCMQHLEYPFTFGIGTKLELKR
B2: hu305-5W-3a-AF (antibody, V domains shown)
VH: QVQLKQSGPGLVKPSETLSLTCTVSGFSLAVYGVHWVRQPPGKGLEWLGVIWRGGTTDYNPSLKSRLTFSKDSSKSQVSLKLSSVTAADTAVYYCAKNRVTTVVAPNFYAMDYWGQGTLVTVSS
VL: DIVMTQSPDSLAVSLGERATINCKSSQSLLYSGNQKNYLAWYQQKPGQPPKLLIYWASTRKSGVPDRFSGSGSGTDFTLTISSLKAEDVAVYYCQQYYTYPLTFGQGTRLEIK
notes: also called afucosylated hu305-5W-3a
B3: hu305-4F-2m-AF (antibody, V domains shown)
VH: QVQLQESGPGLVKPSQTLSLTCTVSGFSLAVYGVHWVRQPPGKGLEWLGVIWRGGTTDYNPSLKSRLTFSKDSSKSQVSLKLSSVTAADTAVYYCAKNRVTTVVAPNFYAMDYWGQGTLVTVSS
VL: DIVMTQSPDSLAVSLGERVTINCKSSQSLLYSGNQKNYLAWYQQKPGQSPKLLIYWASTRKSGVPDRFSGSGSGTDFTLTISSLQAEDVAAYYCQQYYTYPLTFGQGTRLEIK
B4: hu305-4F-2l-AF (antibody, V domains shown)
VH: QVQLQESGPGLVKPSQTLSLTCTVSGFSLAVYGVHWVRQPPGKGLEWLGVIWRGGTTDYNPSLKSRLTFSKDSSKSQVSLKLSSVTAADTAVYYCAKNRVTTVVAPNFYAMDYWGQGTLVTVSS
VL: DIVMTQSPDSLAVSLGERVTMNCKSSQSLLYSGNQKNYLAWYQQKPGQSPKLLIYWASTRKSGVPDRFSGSGSGTDFTLTISSLQAEDVAAYYCQQYYTYPLTFGQGTRLEIK
notes: also called hu305-4F-21-AF; hu305-4F-21
B5: hu305-5P-3a-AF (antibody, V domains shown)
VH: QVQLKQSGPGLVKPSETLSLTCTVSGFSLTSYGVHWVRQPPGKGLEWLGVIWRGGTTDYNPSLKSRVTFSKDSSKNQVSLKLSSVTAADTAVYYCAKNRVTTVVAPNFYAMDYWGQGTLVTVSS
VL: DIVMTQSPDSLAVSLGERATINCKSSQSLLYSGNQKNYLAWYQQKPGQPPKLLIYWASTRKSGVPDRFSGSGSGTDFTLTISSLKAEDVAVYYCQQYYTYPLTFGQGTRLEIK
B6: 4A19 (antibody, V domains shown)
VH: QVQLVQSGAEVKKPGASVKVSCKASGYTFTDSEMHWVRQATGQGLEWMGAIQPETGGTAYNQKFKARVTMTRDTSISTAYMELSSLRSEDTAVYYCARRRRNFDYWGQGTLVTVSS
VL: DIVMTQTPLSLSVTPGQPASISCRSSQSLFHSSGNTYLHWYLQKPGQPPQLLIYKVSNRFSGVPDRFSGSGSGTDFTLKISRVEAEDVGVYYCSQSTHVPFTFGQGTKLEIKR
B7: Ch305-AF (antibody, V domains shown)
VH: QVQMKQSGPSLVQPSQSLSITCTVSGFSLTSYGVHWVRQSPGKGLEWLGVIWRGGTTDYNAAFMSRLSFTKDSSKSQVFFKLNSLQADDTAIYYCAKNRVTTVVAPNFYAMDYWGQGTSVTVSS
VL: DIVMTQSPSSLAVSVGEKVTMSCKSSQSLLYSGNQKNYLAWYQQKPGQSPKLLIYWASTRKSGVPDRLTGSGSGTDFTLTISSVKAEDLAAYYCQQYYTYPLTFGAGTRLEIK
notes: human IgG1/kappa; also called afucosylated Ch305

Assays:
human CCR8 [1] = molecular target: T2, human CCR8 (human, UniProt P51685 1-355); test: flow cytometry, stimulated human primary Treg cells (high CCR8)
T2 sequence (P51685 whole entry): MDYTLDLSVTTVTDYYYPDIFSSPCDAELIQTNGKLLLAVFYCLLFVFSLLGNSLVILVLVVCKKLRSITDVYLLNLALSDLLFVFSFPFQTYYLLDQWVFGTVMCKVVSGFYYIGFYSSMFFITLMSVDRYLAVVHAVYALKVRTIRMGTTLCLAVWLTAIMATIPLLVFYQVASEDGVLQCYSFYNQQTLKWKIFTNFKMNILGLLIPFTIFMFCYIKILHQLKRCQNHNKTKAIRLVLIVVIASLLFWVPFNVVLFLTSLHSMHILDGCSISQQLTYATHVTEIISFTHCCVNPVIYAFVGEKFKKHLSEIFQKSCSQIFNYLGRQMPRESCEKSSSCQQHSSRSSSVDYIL
Method: Treg binding of the humanized antibodies was measured on Treg cells from human PBMC. Briefly, CD25+ cells were isolated from human PBMC. The cells were stimulated with IL-2, TGFβ and anti-CD3/CD28 beads for high CCR8-expression level Treg cells. Next, Treg cells were seeded in 96-well plate and incubated with a series of dilutions of anti-CCR8 antibodies. Goat anti-human IgG was used as secondary antibody to detect antibody binding to the cell surface. EC50 values for dose-dependent binding to human CCR8 were determined by fitting the dose-response data to the four-parameter logistic model with GraphPad Prism. As shown in FIG. 6A and Table 12 the hu305-5W-3a had the highest binding affinity to CCR8 on Treg cells of the humanized antibodies. As noted in Table 12 and FIG. 6A below, the hu305-5W-3a antibody also had the lowest IC50 regarding reducing ligand-receptor interaction.

human CCR8 [2] = molecular target: T2, human CCR8; test: flow cytometry, Jurkat-human CCR8 cells
Method: To evaluate the binding activity of anti-CCR8 antibodies to bind CCR8 expressed on living cells, Jurkat cells were engineered to over-express human CCR8. Jurkat-human CCR8 cells were seeded in 96-well plate and incubated with a series of dilutions of anti-CCR8 antibodies. Goat anti-human IgG was used as secondary antibody to detect antibody binding to the cell surface. EC50 values for dose-dependent binding to human CCR8 were determined by fitting the dose-response data to the four-parameter logistic model with GraphPad Prism. As shown in Table 4 and FIG. 3 the CCR8 antibodies had high binding affinity to human CCR8.

human CCR8 [3] = molecular target: T2, human CCR8; test: FACS binning, Jurkat-huCCR8, 200 nM each; row = unlabeled 1st Ab; competitor (APC labeled 2nd Ab): 4A19
human CCR8 [4] = molecular target: T2, human CCR8; test: FACS binning, Jurkat-huCCR8, 200 nM each; row = unlabeled 1st Ab; competitor (APC labeled 2nd Ab): Ch305
human CCR8 [5] = molecular target: T2, human CCR8; test: FACS binning, Jurkat-huCCR8, 200 nM each; row = unlabeled 1st Ab; competitor (APC labeled 2nd Ab): Ch366-2
human CCR8 [6] = molecular target: T2, human CCR8; test: FACS binning, Jurkat-huCCR8, 200 nM each; row = unlabeled 1st Ab; competitor (APC labeled 2nd Ab): Ch211
human CCR8 [7] = molecular target: T2, human CCR8; test: FACS binning, Jurkat-huCCR8, 200 nM each; row = unlabeled 1st Ab; competitor (APC labeled 2nd Ab): Ch326
[8] = molecular target: human CCR8 N-terminal domain-mouse Fc tag fusion protein (human (CCR8 part), mouse IgG2a Fc); test: ELISA, plate coated with human CCR8 N-terminal domain-Fc fusion
human CCR8 [9] = molecular target: T2, human CCR8; test: FACS binning, Jurkat-huCCR8, 200 nM each; row = unlabeled 1st Ab; competitor (APC labeled 2nd Ab): 433H
human CCR8 [10] = molecular target: T2, human CCR8; test: FACS binning, Jurkat-huCCR8, 200 nM each; row = unlabeled 1st Ab; competitor (APC labeled 2nd Ab): Ch127
Cynomolgus Monkey CCR8 = molecular target: T3, Cynomolgus Monkey CCR8 (cynomolgus monkey, UniProt O97665 1-356 (rhesus entry)); test: flow cytometry, 293T-cynoCCR8 cells
T3 construct: also called cyno CCR8; cynoCCR8
T3 sequence (O97665 other isoform, or with tags, fused parts or gaps): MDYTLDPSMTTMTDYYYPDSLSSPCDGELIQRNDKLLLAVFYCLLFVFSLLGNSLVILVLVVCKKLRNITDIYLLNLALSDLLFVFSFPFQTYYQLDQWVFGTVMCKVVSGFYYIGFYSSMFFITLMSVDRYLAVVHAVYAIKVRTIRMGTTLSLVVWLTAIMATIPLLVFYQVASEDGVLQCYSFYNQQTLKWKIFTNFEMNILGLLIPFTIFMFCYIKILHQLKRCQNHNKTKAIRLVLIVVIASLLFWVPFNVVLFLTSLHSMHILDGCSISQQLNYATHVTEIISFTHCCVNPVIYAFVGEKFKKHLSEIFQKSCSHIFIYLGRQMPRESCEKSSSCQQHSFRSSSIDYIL
Method: Goat anti-human IgG was used as secondary antibody to detect antibody binding to the cell surface. EC50 values for dose-dependent binding to cyno CCR8 were determined by fitting the dose-response data to the four-parameter logistic model with GraphPad Prism.

human CCR8 [11] = molecular target: T2, human CCR8; test: cell-based or functional assay
human CCR8 [12] = molecular target: T2, human CCR8; test: flow cytometry, Jurkat/huCCR8 cells, Test2
Method: (§1) To evaluate the binding activities of anti-CCR8 antibodies to bind native CCR8 on live cells, Jurkat cells (ATCC TIB-15) were engineered to over-express human CCR8. Live Jurkat/huCCR8 cells were seeded in 96-well plate, and were incubated with a series of dilutions of anti-CCR8 antibodies. Alexa Fluor® 647 anti-Human IgG Fc Antibody (Biolegend cat: 410714) was used as a secondary antibody to detect antibody binding to CCR8 expressed on the cell surface. EC50 values for dose-dependent binding to human native CCR8 were determined by fitting the dose-response data to the four-parameter logistic model with GraphPad Prism.

human CCR8 [13] = molecular target: T2, human CCR8; test: cell-based or functional assay; remark: listed apart in the source
human CCR8 [14] = molecular target: T2, human CCR8; test: flow cytometry, Jurkat/huCCR8 cells, Test1
Method: as §1

[15] = molecular target: T1, human CCR8 N-terminal domain-mouse Fc …; test: ELISA, plate coated with human CCR8 N-terminal domain-Fc fusion
Method: To determine whether anti-CCR8 antibodies bind to the N-terminal domain of human CCR8, ELISA plates were coated with human CCR8 N-terminal domain-mouse Fc tag fusion protein (SEQ ID NO: 28 and 29) overnight at 4° C. After washing and blocking, serially diluted anti-CCR8 antibodies were added to plates and incubated for 1 hour at room temperature. After washing, diluted HRP goat anti-human IgG Fc or HRP goat anti-mouse kappa chain (for 433H) secondary antibodies were added to plates and incubated for 45 minutes at room temperature. After washing, TMB substrate was added to plates for developing and then stopped by adding TMB substrate stop solution. The absorbance was read at 450 nm using a plate reader. […] It is a non CCR8 N-terminal loop binder.

Molecule	Emax (human CCR8 [1]) [RLU]	EC50 (Cynomolgus Monkey CCR8) [nM]	Emax (Cynomolgus Monkey CCR8) [RLU]	IC50(nM), blocking activity (human CCR8 [11]) [nM]	Imax(%), blocking activity (human CCR8 [11]) [%]	EC50 (human CCR8 [12]) [nM]	Emax (human CCR8 [12]) [MFI]	EC50 (human CCR8 [1]) [nM]	EC50 (nM), NK cell mediated cytotoxicity (ADCC) on CCR8-expressing Treg (human CCR8 [13]) [nM]	Emax (%), NK cell mediated cytotoxicity (ADCC) on CCR8-expressing Treg (human CCR8 [13]) [%]	EC50 (human CCR8 [14]) [nM]	Emax (human CCR8 [14]) [MFI]	other results
hIgG (antibody)	60	–	–	–	–	–	–	–	–	–	–	–	Emax (human CCR8 [2]): 204 RFU
B1	–	–	–	–	–	–	–	–	–	–	–	–	% of the maximum binding of the APC labeled antibody (human CCR8 [3]): 8.43%; % of the maximum binding of the APC labeled antibody (human CCR8 [4]): 28.9%; % of the maximum binding of the APC labeled antibody (human CCR8 [5]): 14.2%; % of the maximum binding of the APC labeled antibody (human CCR8 [6]): 39.9%; % of the maximum binding of the APC labeled antibody (human CCR8 [7]): 1.87%; EC50 [8]: 0.94 nM; % of the maximum binding of the APC labeled antibody (human CCR8 [9]): 3.03%; % of the maximum binding of the APC labeled antibody (human CCR8 [10]): 2.55%
B2	2030	12.5	12400	1.82	87.3	2.98	16700	47.6	0.059	75.5	–	–	–
B3	1860	16.6	12300	13.1	75.6	–	–	136	0.585	70.9	5.83	22900	–
B4	1760	16.7	12500	6.19	78	–	–	117	0.396	72.3	6.01	23500	–
B5	1720	9.83	12600	10.5	77.1	2.99	17500	35.2	0.077	73.7	–	–	–
B6	–	–	–	–	–	–	–	–	–	–	–	–	EC50 [15]: 0.11 nM
B7	1750	14.8	11900	1.84	87.8	4.75	16600	90.7	0.064	75.1	3.88	25200	–

From US20250115671A1 (BEIGENE, published 2025)
